Test results: PMC8511477 (Synthetic Biology, 2021)

Key:
Conditions in all cases: 2.5 mM ATP, 0.5 mM CoA, 5 mM MgCl2, pH 7.5, 37 °C
ArACS = test system: T1, ArACS; experiment: myokinase/pyruvate kinase/lactate dehydrogenase coupled NADH assay, […] nm; format: biochemical
T1 construct: gene acs; C-terminal 6xHis (pET29b+), expressed in E. coli BL21*(DE3) delta-patZ, Ni-NTA purified; species only in supplement

EcACS = molecular target: T2, EcACS (Escherichia coli, UniProt P27550)
T2 construct: gene acs

purified protein [1] = substrate: CC(=O)O; experiment: purified protein
purified protein [2] = substrate: O=CO; experiment: purified protein

O=CO [formate]
Km (ArACS): 38.5 ± 19.3 mM

CC(=O)O [acetate]
km (EcACS): We assayed these homologs using formate as well as acetate, the likely native substrate

B1: MhACS (Marinithermus hydrothermalis DSM 14884) (protein)
chain: MERIEAVLKENRRFEPPEEFRKRARIQSEAEYEALYRESLEDPEAFWGRVAEELHWFEPWTQVLEWNPPHARWFVNGKTNLSYNALDRHVATWRKNKAAIIWEGEPGEERVLTYHDLWREVQRFANALKQLGVGKGDRVTIYMPMIPETAIAMLACARIGAVHSVVFGGFSANALAERIKDAEAKLLITADGGYRRGRVVPLKAQADEALAETPSVEHVVVVRRTGEAVPMQPGRDHWYHELVESVPDHCPPEVMDAEDPLFILYTSGSTGKPKGVLHTTGGYMVYTYLTTKLVFDLKDEDTYWCTADVGWITGHSYIVYGPLVNGATTLMYEGAPNHPEPDRFWRIVDKYGVTIFYTAPTAIRAFMKWGEAWPRKHRLDSLRLLGTVGEPINPEAWLWYHQVIGQGRCPIVDTWWQTETGGIMITTLPGAHAAKPGFAGKPFFGVAPEIRDAEGNRVETPEEGGYLVLTRPWPSMLRTVWGDPERYRRQYWSQYPDAYFTGDGARRDADGYYLILGRVDDVLNVAGHRLGTMELESALVSHPDVAEAAVVGRPHPEKGEAIVAFVTLKSHARPSEALREALKAHVANTIGPIARPDEIRFAEALPKTRSGKIMRRLLRQIAAGETEIKGDTSTLEDREVVEQLKRGE
Km (purified protein [1]): 0.089 ± 0.060 mM | kcat (purified protein [1]): 15.1 s⁻¹

B2: EcACS (Escherichia coli K-12) (protein)
chain: MSQIHKHTIPANIADRCLINPQQYEAMYQQSINVPDTFWGEQGKILDWIKPYQKVKNTSFAPGNVSIKWYEDGTLNLAANCLDRHLQENGDRTAIIWEGDDASQSKHISYKELHRDVCRFANTLLELGIKKGDVVAIYMPMVPEAAVAMLACARIGAVHSVIFGGFSPEAVAGRIIDSNSRLVITSDEGVRAGRSIPLKKNVDDALKNPNVTSVEHVVVLKRTGGKIDWQEGRDLWWHDLVEQASDQHQAEEMNAEDPLFILYTSGSTGKPKGVLHTTGGYLVYAALTFKYVFDYHPGDIYWCTADVGWVTGHSYLLYGPLACGATTLMFEGVPNWPTPARMAQVVDKHQVNILYTAPTAIRALMAEGDKAIEGTDRSSLRILGSVGEPINPEAWEWYWKKIGNEKCPVVDTWWQTETGGFMITPLPGATELKAGSATRPFFGVQPALVDNEGNPLEGATEGSLVITDSWPGQARTLFGDHERFEQTYFSTFKNMYFSGDGARRDEDGYYWITGRVDDVLNVSGHRLGTAEIESALVAHPKIAEAAVVGIPHNIKGQAIYAYVTLNHGEEPSPELYAEVRNWVRKEIGPLATPDVLHWTDSLPKTRSGKIMRRILRKIAAGDTSNLGDTSTLADPGVVEKLLEEKQAIAMPS
Km (purified protein [2]): 54.4 ± 14.9 mM
